Results: US20100240080A1

What was measured:
[1] = tested on: T1, SEQ ID NO: 47 (ALRRFSLGEK), modified as described
T1 sequence: ALRRFSLGEK

[2] = tested on: T2, SEQ ID NO: 110 (RRRQFS*LRRKAK), labelled phosphopeptide
T2 sequence: RRRQFSLRRKAK

[3] = tested on: T3, SEQ ID NO: 109 (ARPRAFS*VGK), labelled phosphopeptide
T3 sequence: ARPRAFSVGK

[4] = tested on: T4, SEQ ID NO: 100 (RGGLFS*TTPGGTK), labelled phosphopeptide
T4 sequence: RGGLFSTTPGGTK

[5] = target: Akt 1 substrate, SEQ ID NO: 59 (…), modified with 7-hydroxycoumarin and 5-FAM; assay: cell-based or functional assay
[6] = target: Abl 1 substrate, SEQ ID NO: 3 (…), modified with 7-hydroxycoumarin and 5-FAM; assay: cell-based or functional assay
[7] = tested on: T5, Akt 1 substrate, SEQ ID NO: 59 (ARPRAFSVGK), modified with 7-hydroxycoumarin and 5-FAM
T5 sequence: ARPRAFSVGK

[8] = tested on: T6, SEQ ID NO: 103 (GDQDYLS*LDK), labelled phosphopeptide
T6 sequence: GDQDYLSLDK

[9] = tested on: T7, SEQ ID NO: 113 (RPRTFSS*LAEGK), labelled phosphopeptide
T7 sequence: RPRTFSSLAEGK

[10] = target: T8, SEQ ID NO: 31 (EEEIY*GVIEK), labelled phosphopeptide
T8 chain: EEEIYGVIEK

Molecule: PKA
- % phosphorylation by PKA (kinase titration, FRET/chymotrypsin read-out) [1]: SEQ ID NO: 47 modified as described, is the best substrate for the kinase because it yielded maximal phosphorylation even at low kinase concentrations

Molecule: PP2C
- phosphatase substrate screen (dephosphorylation, FRET/chymotrypsin read-out) [2]: SEQ ID NOs: 100, 109, and 110 were substrates of PP2C
- phosphatase substrate screen (dephosphorylation, FRET/chymotrypsin read-out) [3]: SEQ ID NOs: 100, 109, and 110 were substrates of PP2C
- phosphatase substrate screen (dephosphorylation, FRET/chymotrypsin read-out) [4]: SEQ ID NOs: 100, 109, and 110 were substrates of PP2C

Molecule: Akt 1 kinase (from UniProt P31749 1-480) (enzyme)
- % of substrate phosphorylated in the 0% inhibition control (42 ng Akt 1/well, 10.5 µM ATP) [5]: 30%

Molecule: PP2B
- phosphatase substrate screen (dephosphorylation, FRET/chymotrypsin read-out) [2]: SEQ ID NOs: 100 and 110 were substrates of PP2B
- phosphatase substrate screen (dephosphorylation, FRET/chymotrypsin read-out) [4]: SEQ ID NOs: 100 and 110 were substrates of PP2B

Molecule: Abl 1 kinase (from UniProt P00519 1-1130) (enzyme)
- % of substrate phosphorylated in the 0% inhibition control (1.5 ng Abl 1/well, 10 µM ATP) [6]: 30%

Molecule: Akt 1 kinase
- % Phosphorylation at 5.0 ng Akt 1 kinase per well [7]: 8%
- % Phosphorylation at 10.0 ng Akt 1 kinase per well [7]: 12%
- % Phosphorylation at 25.0 ng Akt 1 kinase per well [7]: 20%
- % Phosphorylation at 37.5 ng Akt 1 kinase per well [7]: 28%
- % Phosphorylation at 42.0 ng Akt 1 kinase per well [7]: 30%
- % Phosphorylation at 50.0 ng Akt 1 kinase per well [7]: 33%
- % Phosphorylation at 75.0 ng Akt 1 kinase per well [7]: 38%
- % Phosphorylation at 100.0 ng Akt 1 kinase per well [7]: 43%
- % Phosphorylation at 150.0 ng Akt 1 kinase per well [7]: 50%

Molecule: PP2A
- phosphatase substrate screen (dephosphorylation, FRET/chymotrypsin read-out) [2]: SEQ ID NOs: 103, 109, 110, and 113 were substrates of PP2A
- phosphatase substrate screen (dephosphorylation, FRET/chymotrypsin read-out) [8]: SEQ ID NOs: 103, 109, 110, and 113 were substrates of PP2A
- phosphatase substrate screen (dephosphorylation, FRET/chymotrypsin read-out) [3]: SEQ ID NOs: 103, 109, 110, and 113 were substrates of PP2A
- phosphatase substrate screen (dephosphorylation, FRET/chymotrypsin read-out) [9]: SEQ ID NOs: 103, 109, 110, and 113 were substrates of PP2A

B1: PTP1B (protein)
chain: MEMEKEFEQIDKSGSWAAIYQDIRHEASDFPCRVAKLPKNKNRNRYRDVSPFDHSRIKLHQEDNDYINASLIKMEEAQRSYILTQGPLPNTCGHFWEMVWEQKSRGVVMLNRVMEKGSLKCAQYWPQKEEKEMIFEDTNLKLTLISEDIKSYYTVRQLELENLTTQETREILHFHYTTWPDFGVPESPASFLNFLFKVRESGSLSPEHGPVVVHCSAGIGRSGTFCLADTCLLLMDKRKDPSSVDIKKVLLEMRKFRMGLIQTADQLRFSYLAVIEGAKFIMGDSSVQDQWKELSHEDLEPPPEHIPPPPRPPKRILEPHN
- phosphatase substrate screen (dephosphorylation, FRET/chymotrypsin read-out) [10]: SEQ ID NO: 31 was a substrate for both PTP1B and LAR

B2: LAR (protein)
chain: KRKRTHSPSSKDEQSIGLKDSLLAHSSDPVEMRRLNYQTPGMRDHPPIPITDLADNIERLKANDGLKFSQEYESIDPGQQFTWENSNLEVNKPKNRYANVIAYDHSRVILTSIDGVPGSDYINANYIDGYRKQNAYIATQGPLPETMGDFWRMVWEQRTATVVMMTRLEEKSRVKCDQYWPARGTETCGLIQVTLLDTVELATYTVRTFALHKSGSSEKRELRQFQFMAWPDHGVPEYPTPILAFLRRVKACNPLDAGPMVVHCSAGVGRTGCFIVIDAMLERMKHEKTVDIYGHVTCMRSQRNYMVQTEDQYVFIHEALLEAATCGHTEVPARNLYAH
- phosphatase substrate screen (dephosphorylation, FRET/chymotrypsin read-out) [10]: SEQ ID NO: 31 was a substrate for both PTP1B and LAR
